Laboratory results taken from US20120178668A1.

What was measured:
Assay in all cases: cell-based or functional assay
[1] = target: Natriuretic Peptide Receptor-A (NPR-A) of MDCK cells (canine (endogenous in MDCK cells))
rat GC-A (rat) = rat GC-A (rat) (UniProt P18910)
NPR-A of HeLa cells = NPR-A of HeLa cells (UniProt P16066)
NPR-C (rat) = target: T1, NPR-C (rat) (UniProt P41740)
T1 sequence: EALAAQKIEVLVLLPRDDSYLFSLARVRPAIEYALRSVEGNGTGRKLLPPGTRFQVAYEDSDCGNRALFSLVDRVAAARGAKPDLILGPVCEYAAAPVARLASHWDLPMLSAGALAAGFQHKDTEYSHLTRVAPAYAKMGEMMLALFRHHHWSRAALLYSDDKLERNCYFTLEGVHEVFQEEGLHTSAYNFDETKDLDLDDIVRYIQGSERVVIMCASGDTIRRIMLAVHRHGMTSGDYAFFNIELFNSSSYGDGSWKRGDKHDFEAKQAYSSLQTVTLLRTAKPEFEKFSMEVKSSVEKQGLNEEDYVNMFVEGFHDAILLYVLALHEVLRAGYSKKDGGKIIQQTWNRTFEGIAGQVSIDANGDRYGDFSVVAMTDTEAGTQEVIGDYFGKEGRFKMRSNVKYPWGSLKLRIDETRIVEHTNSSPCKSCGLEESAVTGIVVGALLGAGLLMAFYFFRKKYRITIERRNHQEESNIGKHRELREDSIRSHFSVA

[2] = target: T2, NPR-A of HeLa cells, P16066
T2 chain: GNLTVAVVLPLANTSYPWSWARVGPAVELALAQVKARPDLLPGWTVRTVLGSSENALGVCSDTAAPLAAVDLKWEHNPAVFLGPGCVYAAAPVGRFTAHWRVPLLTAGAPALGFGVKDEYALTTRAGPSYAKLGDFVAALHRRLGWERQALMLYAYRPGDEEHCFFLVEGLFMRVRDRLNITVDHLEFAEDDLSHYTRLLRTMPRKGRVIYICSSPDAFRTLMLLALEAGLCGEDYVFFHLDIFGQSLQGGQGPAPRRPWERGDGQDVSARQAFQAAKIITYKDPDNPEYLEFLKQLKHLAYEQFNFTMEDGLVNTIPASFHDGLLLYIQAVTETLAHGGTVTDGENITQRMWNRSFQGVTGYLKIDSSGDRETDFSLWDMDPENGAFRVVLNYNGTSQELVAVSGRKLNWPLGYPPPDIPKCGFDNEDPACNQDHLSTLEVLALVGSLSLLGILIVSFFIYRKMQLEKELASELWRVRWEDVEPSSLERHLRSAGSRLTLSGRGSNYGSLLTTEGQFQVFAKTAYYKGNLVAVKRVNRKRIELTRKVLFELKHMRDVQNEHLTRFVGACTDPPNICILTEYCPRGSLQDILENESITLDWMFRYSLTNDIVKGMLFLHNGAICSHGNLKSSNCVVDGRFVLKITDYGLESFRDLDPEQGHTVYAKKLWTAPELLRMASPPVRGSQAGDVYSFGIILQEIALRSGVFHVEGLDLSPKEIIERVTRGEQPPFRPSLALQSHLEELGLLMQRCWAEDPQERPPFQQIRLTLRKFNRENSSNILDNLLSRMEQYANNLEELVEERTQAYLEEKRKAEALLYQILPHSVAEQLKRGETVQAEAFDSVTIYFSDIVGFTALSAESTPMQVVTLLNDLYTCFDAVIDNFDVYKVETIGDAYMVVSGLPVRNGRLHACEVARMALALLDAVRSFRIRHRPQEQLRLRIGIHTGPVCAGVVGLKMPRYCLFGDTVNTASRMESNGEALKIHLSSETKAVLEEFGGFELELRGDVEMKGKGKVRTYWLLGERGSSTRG

NPR-C (rat), P41740 = target: T3, NPR-C (rat), P41740
T3 chain: T1 sequence

[3] = target: T4, Natriuretic Peptide Receptor-A (NPR-A) of MDCK cells (canine (endogenous in MDCK cells)), A0A8I3
T4 chain: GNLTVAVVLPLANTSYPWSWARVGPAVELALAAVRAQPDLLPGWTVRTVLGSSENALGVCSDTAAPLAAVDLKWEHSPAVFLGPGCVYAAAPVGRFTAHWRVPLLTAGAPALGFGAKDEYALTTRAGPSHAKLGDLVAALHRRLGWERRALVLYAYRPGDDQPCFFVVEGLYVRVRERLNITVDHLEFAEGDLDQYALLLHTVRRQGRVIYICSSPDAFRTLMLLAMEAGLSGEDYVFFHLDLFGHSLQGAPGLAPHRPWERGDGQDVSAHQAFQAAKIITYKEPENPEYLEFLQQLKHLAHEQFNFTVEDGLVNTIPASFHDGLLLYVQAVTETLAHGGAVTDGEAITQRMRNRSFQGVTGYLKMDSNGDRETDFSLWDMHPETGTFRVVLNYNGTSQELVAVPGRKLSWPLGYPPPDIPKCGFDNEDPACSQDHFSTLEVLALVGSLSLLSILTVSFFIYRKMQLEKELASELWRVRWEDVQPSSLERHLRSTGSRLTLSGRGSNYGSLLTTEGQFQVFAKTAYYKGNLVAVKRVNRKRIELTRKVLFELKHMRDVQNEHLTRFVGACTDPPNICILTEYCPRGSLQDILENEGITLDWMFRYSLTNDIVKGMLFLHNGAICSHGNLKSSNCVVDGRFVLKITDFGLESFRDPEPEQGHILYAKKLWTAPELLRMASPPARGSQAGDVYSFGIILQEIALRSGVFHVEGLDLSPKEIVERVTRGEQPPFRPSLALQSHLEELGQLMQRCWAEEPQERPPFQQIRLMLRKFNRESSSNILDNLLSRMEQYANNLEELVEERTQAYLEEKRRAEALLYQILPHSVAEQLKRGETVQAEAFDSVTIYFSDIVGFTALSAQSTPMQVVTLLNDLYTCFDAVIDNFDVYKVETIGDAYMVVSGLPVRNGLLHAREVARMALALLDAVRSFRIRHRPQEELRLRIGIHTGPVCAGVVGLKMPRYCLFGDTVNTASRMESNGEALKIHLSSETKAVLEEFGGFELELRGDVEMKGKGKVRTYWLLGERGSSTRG

rat GC-A (rat), P18910 = target: T5, rat GC-A (rat), P18910
T5 chain: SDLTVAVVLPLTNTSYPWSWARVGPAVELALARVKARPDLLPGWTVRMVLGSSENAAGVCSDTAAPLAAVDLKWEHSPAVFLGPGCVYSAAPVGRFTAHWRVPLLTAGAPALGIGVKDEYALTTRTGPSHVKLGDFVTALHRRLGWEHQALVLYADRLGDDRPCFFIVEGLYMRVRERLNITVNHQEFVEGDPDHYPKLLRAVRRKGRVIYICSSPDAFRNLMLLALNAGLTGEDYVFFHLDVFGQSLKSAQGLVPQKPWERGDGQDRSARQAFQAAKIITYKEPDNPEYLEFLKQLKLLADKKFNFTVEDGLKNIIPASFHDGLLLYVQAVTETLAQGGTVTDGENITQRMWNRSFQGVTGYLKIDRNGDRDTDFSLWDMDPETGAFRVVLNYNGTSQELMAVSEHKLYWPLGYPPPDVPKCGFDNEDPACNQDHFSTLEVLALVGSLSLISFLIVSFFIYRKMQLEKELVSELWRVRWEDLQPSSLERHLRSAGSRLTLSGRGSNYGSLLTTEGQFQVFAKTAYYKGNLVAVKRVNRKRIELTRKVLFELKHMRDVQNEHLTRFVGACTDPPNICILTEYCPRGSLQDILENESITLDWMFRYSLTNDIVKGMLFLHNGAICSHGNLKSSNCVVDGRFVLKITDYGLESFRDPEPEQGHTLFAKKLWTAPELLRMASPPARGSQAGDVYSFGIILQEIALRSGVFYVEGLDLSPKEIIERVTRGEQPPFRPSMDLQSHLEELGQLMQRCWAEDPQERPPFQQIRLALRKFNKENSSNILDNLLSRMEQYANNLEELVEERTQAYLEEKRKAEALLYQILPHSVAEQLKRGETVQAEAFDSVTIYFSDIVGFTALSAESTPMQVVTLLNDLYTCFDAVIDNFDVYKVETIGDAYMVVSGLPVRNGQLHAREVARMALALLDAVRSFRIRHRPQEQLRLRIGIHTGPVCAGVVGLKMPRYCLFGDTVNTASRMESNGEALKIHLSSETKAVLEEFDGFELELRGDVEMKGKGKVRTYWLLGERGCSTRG

A7-TNPc (peptide)
-Log10 EC50 (pEC50) of cGMP accumulation in MDCK cells [1]: 6.87 | EC50 of cGMP accumulation in MDCK cells [1]: 0.161 µM | mean relaxation of denuded aortic rings, % of KCl response (% of KCl response) (rat GC-A (rat)): 32.9

CHA10-TNPc (peptide)
-Log10 EC50 (pEC50) of cGMP accumulation in MDCK cells [1]: 7.84 | EC50 of cGMP accumulation in MDCK cells [1]: 0.0144 µM | mean relaxation of denuded aortic rings, % of KCl response (% of KCl response) (rat GC-A (rat)): 64.2

DNP (peptide)
-Log10EC50 (pEC50) of cGMP accumulation in HeLa cells (NPR-A of HeLa cells): 9.42 | EC50 of cGMP accumulation in HeLa cells (NPR-A of HeLa cells): 0.000392 µM | relaxation of KCl pre-contracted endothelium-intact rat aortic rings (NPR-C (rat)): 100% | -Log10 EC50 (pEC50) of cGMP accumulation in MDCK cells [1]: 8.08 | EC50 of cGMP accumulation in MDCK cells [1]: 1.85 µM | relaxation of KCl pre-contracted endothelium-denuded rat aortic rings (rat GC-A (rat)): 100%

K7-TNPc (peptide)
-Log10 EC50 (pEC50) of cGMP accumulation in MDCK cells [1]: 7.44 | EC50 of cGMP accumulation in MDCK cells [1]: 0.0527 µM | mean relaxation of denuded aortic rings, % of KCl response (% of KCl response) (rat GC-A (rat)): 46.1 | relaxation of denuded aortic rings (rat GC-A (rat)): 50%

Lebetin 2 isoform α (peptide)
-Log10 EC50 (pEC50) of cGMP accumulation in MDCK cells [1]: 7.64 | EC50 of cGMP accumulation in MDCK cells [1]: 0.0268 µM

N7D-TNPc (peptide)
-Log10 EC50 (pEC50) of cGMP accumulation in MDCK cells [1]: 7.58 | EC50 of cGMP accumulation in MDCK cells [1]: 0.0262 µM

Nle29-TNPc (peptide)
-Log10 EC50 (pEC50) of cGMP accumulation in MDCK cells [1]: 6.5 | EC50 of cGMP accumulation in MDCK cells [1]: 0.399 µM | mean relaxation of denuded aortic rings, % of KCl response (% of KCl response) (rat GC-A (rat)): 61

P28-TNPc (peptide)
-Log10 EC50 (pEC50) of cGMP accumulation in MDCK cells [1]: 6 | EC50 of cGMP accumulation in MDCK cells [1]: 1.19 µM | mean relaxation of denuded aortic rings, % of KCl response (% of KCl response) (rat GC-A (rat)): 52.6

PNP (peptide)
-Log10 EC50 (pEC50) of cGMP accumulation in MDCK cells [1]: 6.66 | EC50 of cGMP accumulation in MDCK cells [1]: 0.347 µM

R18-TNPc (peptide)
-Log10 EC50 (pEC50) of cGMP accumulation in MDCK cells [1]: 6.78 | EC50 of cGMP accumulation in MDCK cells [1]: 0.7 µM | mean relaxation of denuded aortic rings, % of KCl response (% of KCl response) (rat GC-A (rat)): 0.5

R32-TNPc (peptide)
-Log10 EC50 (pEC50) of cGMP accumulation in MDCK cells [1]: 7.68 | EC50 of cGMP accumulation in MDCK cells [1]: 0.0991 µM | mean relaxation of denuded aortic rings, % of KCl response (% of KCl response) (rat GC-A (rat)): 66.4

S6, A7-TNPc (peptide)
-Log10 EC50 (pEC50) of cGMP accumulation in MDCK cells [1]: 6.9 | EC50 of cGMP accumulation in MDCK cells [1]: 0.169 µM | mean relaxation of denuded aortic rings, % of KCl response (% of KCl response) (rat GC-A (rat)): 43.1

S6, K7-TNPc (peptide)
-Log10 EC50 (pEC50) of cGMP accumulation in MDCK cells [1]: 7.57 | EC50 of cGMP accumulation in MDCK cells [1]: 0.0524 µM | mean relaxation of denuded aortic rings, % of KCl response (% of KCl response) (rat GC-A (rat)): 43.8

hANP (peptide)
relaxation of KCl pre-contracted endothelium-intact rat aortic rings (NPR-C (rat)): 100% | -Log10 EC50 (pEC50) of cGMP accumulation in MDCK cells [1]: 8.79 | EC50 of cGMP accumulation in MDCK cells [1]: 0.0164 µM | mean relaxation of denuded aortic rings, % of KCl response (% of KCl response) (rat GC-A (rat)): 66.5 | relaxation of KCl pre-contracted endothelium-denuded rat aortic rings (rat GC-A (rat)): 100%

hBNP (peptide)
-Log10EC50 (pEC50) of cGMP accumulation in HeLa cells (NPR-A of HeLa cells): 6.92 | EC50 of cGMP accumulation in HeLa cells (NPR-A of HeLa cells): 0.147 µM | -Log10 EC50 (pEC50) of cGMP accumulation in MDCK cells [1]: 9.16 | EC50 of cGMP accumulation in MDCK cells [1]: 0.000906 µM

rANP (from UniProt P01161 123-150) (peptide)
-Log10 EC50 (pEC50) of cGMP accumulation in MDCK cells [1]: 8.76 | EC50 of cGMP accumulation in MDCK cells [1]: 0.00847 µM

SDSKIGNGCFGFPLDRIGSVSGLGCNRIMQNPPKKFSGE (modifications not checked) [TNPc]
EC50 of cGMP accumulation in HeLa cells [2]: 124000 µM | relaxation of KCl pre-contracted endothelium-intact rat aortic rings (NPR-C (rat), P41740): 100% | -Log10 EC50 (pEC50) of cGMP accumulation in MDCK cells [3]: 6.93 | EC50 of cGMP accumulation in MDCK cells [3]: 0.184 µM | mean relaxation of denuded aortic rings, % of KCl response (% of KCl response) (rat GC-A (rat), P18910): 55 | relaxation of KCl pre-contracted endothelium-denuded rat aortic rings (rat GC-A (rat), P18910): 100%

SDSKIGDGCFGLPLDHIGSVSGLGCNRPVQNRPKK (modifications not checked) [TNPa]
relaxation of KCl pre-contracted endothelium-intact rat aortic rings (NPR-C (rat), P41740): 20%

SDPKIGDGCFGLPLDHIGSVSGLGCNRPVQNRPKK (modifications not checked) [TNPb]
relaxation of KCl pre-contracted endothelium-intact rat aortic rings (NPR-C (rat), P41740): 20%
